{"source": "patent US8465735B2", "about": "“Variant form of urate oxidase and use thereof” (Savient Pharmaceuticals, Inc., priority 2005, dated 2013)", "proteins": {"B1": {"name": "Pig uricase, native (Sigma) (Sus scrofa) (protein)", "chain": "MAHYRNDYKKNDEVEFVRTGYGKDMIKVLHIQRDGKYHSIKEVATSVQLTLSSKKDYLHGDNSDVIPTDTIKNTVNVLAKFKGIKSIETFAVTICEHFLSSFKHVIRAQVYVEEVPWKRFEKNGVKHVHAFIYTPTGTHFCEVEQIRNGPPVIHSGIKDLKVLKTTQSGFEGFIKDQFTTLPEVKDRCFATQVYCKWRYHQGRDVDFEATWDTVRSIVLQKFAGPYDKGEYSPSVQKTLYDIQVLTLGQVPEIEDMEISLPNIHYLNIDMSKMGLINKEEVLLPLDNPYGRITGTVKRKLTSRL"}}, "substrate": "O=c1[nH]c(=O)c2[nH]c(=O)[nH]c2[nH]1", "assay": "purified protein, by the assay type", "details": "other: sodium borate buffer, pH 9.2, 25.0 °C", "data": [{"protein": "B1", "values": [{"measurement": "Km", "value": 5.85, "unit": "µM"}, {"measurement": "kcat", "value": 15, "unit": "s⁻¹"}]}]}
